# Assay results reported in US8802386B2, “Diagnostic test for determining the concentration of transient proteolytic activity in composite biological media” (Synapse B.V., priority 2002, dated 2014).
# B1: ReoPro: a known platelet-activation inhibitor (antibody, chains of the INN, looked up, V domains shown)
# VH: EVQLQQSGTVLARPGASVKMSCEASGYTFTNYWMHWVKQRPGQGLEWIGAIYPGNSDTSYIQKFKGKAKLTAVTSTTSVYMELSSLTNEDSAVYYCTLYDGYYVFAYWGQGTLVTVSA
# VL: EIVLTQSPVTLSVTPGDSVSLSCRASRDISNNLHWFQQTSHESPRLLIKYASQSMSGIPSRFSGSGSGTDFTLSINSVETEDFGMYFCQQTNSWPYTFGGGTKLEIK
# modifications: Fab
# System: thrombin generation in platelet-rich plasma of a healthy donor
# Assay: Thrombin generation curve (Thrombogram) in platelet-rich plasma, fluorogenic substrate
# Type: cell-based, Human
# Settings: platelet-rich plasma of a healthy donor treated with the inhibitor vs the same plasma untreated; FIG. 9
# Method: FIG. 9 is an example of an experiment in which platelet-rich plasma of a healthy donor is measured as well as the same plasma treated with a known platelet-activation inhibitor (ReoPro®). The two curves are different in shape, which is obvious from a longer TTP and lower peak height, but the area under the curve of both curves are within 3%, identical. This effect on peak height and TTP in the absence of a clear effect on the ETP is also seen for many mild coagulation factor deficiencies such as von Willebrand disease, deficiencies in factor VII or factor V and in factor VIII or IX deficiencies (haemophiliae). In many instances the Peak height and TTP have proven to be much more sensitive parameters of the thrombin generation curve than the ETP alone.
# Firstly, an experiment is described in which thrombin generation in a sample of platelet rich plasma is measured. Solutions used: Human platelet rich plasma, obtained as in Beguin, S., T. Lindhout, and H. C. Hemker. The effect of trace amounts of tissue factor on thrombin generation in platelet rich plasma, its inhibition by heparin. Thromb Haemost, 1989. 61(1): p-25-9. Buffer A: 20 mM Hepes 140 mM NaCl, 5 g/l bovine serum albumin (BSA), pH 7.35; Buffer C: 20 mM Hepes, 140 mM NaCl, with BSA 60 mg/mL, pH 7.35 with 0.02% sodium azide as a preservative.
# FluCa solution: To 1750 μL of buffer C are added 200 μL of 1 M CaCl2. The mixture is warmed to 37° C. Then 50 μL of 100 mmoles/liter of the substrate solution in DMSO is squirted in and the tube is immediately vortexed to obtain a perfectly clear solution that is 2.5 mM in substrate. 100 mM in CaCl2, 2.5% in DMSO. […]
# The disturbing effects a and b are corrected by continuous on line comparison of the first derivative of the signal from the thrombin generated in the sample (O=f(t)) and the first derivative of the signal produced in the other sample by the calibrator (S=f(t)). […] A and B are continuously calculated during the experiment from the best fitting straight line through S=f(t). […]
molecule,measurement,value
B1,TTP (time to peak) of thrombin generation curve,longer
same,difference in area under the curve (ETP) between treated and untreated plasma,≤ 3%
same,peak height of thrombin generation curve,lower
